Key:
[1] = molecular target: CD20 (human) (UniProt P11836); test: cell-based or functional assay
[2] = molecular target: CD74 (human) (UniProt P04233); test: cell-based or functional assay
CD74 (human), sequence (P04233 whole entry): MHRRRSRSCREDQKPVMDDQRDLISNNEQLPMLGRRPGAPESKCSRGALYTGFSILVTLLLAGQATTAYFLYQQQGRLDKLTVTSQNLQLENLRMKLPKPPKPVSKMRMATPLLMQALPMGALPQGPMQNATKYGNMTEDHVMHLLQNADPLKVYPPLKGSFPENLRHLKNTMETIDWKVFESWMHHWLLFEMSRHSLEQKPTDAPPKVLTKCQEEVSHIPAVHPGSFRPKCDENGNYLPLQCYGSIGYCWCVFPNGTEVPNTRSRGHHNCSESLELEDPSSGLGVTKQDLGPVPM

CD20 (human), sequence (P11836 whole entry): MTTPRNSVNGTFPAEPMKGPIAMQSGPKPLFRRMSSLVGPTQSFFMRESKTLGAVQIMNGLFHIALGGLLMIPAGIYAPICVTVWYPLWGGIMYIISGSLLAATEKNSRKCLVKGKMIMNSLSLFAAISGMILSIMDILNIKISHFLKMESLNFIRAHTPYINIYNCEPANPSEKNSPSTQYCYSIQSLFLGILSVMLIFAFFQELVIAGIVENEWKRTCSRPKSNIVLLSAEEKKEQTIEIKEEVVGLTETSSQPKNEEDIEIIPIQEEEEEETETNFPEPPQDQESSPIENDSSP

Substance | EC50 (nM), MTS cell proliferation assay, Daudi [1] | EC50 (nM), MTS cell proliferation assay, Granta-519 [1] | EC50 (nM), MTS cell proliferation assay, JeKo-1 [1] | EC50 (nM), MTS cell proliferation assay, Mino [1] | EC50 (nM), MTS cell proliferation assay, Raji [1] | Percent inhibition (%) at 100 nM, MTS assay, Granta-519 [1] | Percent inhibition (%) at 100 nM, MTS assay, JeKo-1 [1] | Percent inhibition (%) at 100 nM, MTS assay, Raji [1] | homotypic adhesion (%), JeKo-1, 2 h, 10 nM [1] | homotypic adhesion (%), JeKo-1, 24 h, 10 nM [1] | EC50 (nM), MTS cell proliferation assay, Daudi [2] | EC50 (nM), MTS cell proliferation assay, Granta-519 [2] | EC50 (nM), MTS cell proliferation assay, JeKo-1 [2] | EC50 (nM), MTS cell proliferation assay, Mino [2] | EC50 (nM), MTS cell proliferation assay, Raji [2] | EC50, MTS assay, in CLL lines WAC, MEC-1, ALL lines REH-1, MN60 and MM lines CAG, RPMI8226, KMS11, KMS12-BM, KMS12-PE [2] | Percent inhibition (%) at 100 nM, MTS assay, Granta-519 [2] | Percent inhibition (%) at 100 nM, MTS assay, JeKo-1 [2] | Percent inhibition (%) at 100 nM, MTS assay, Mino [2] | Percent inhibition (%) at 100 nM, MTS assay, Raji [2] | also measured
20-(74)-(74) bispecific hexavalent antibody (HexAb): CH3-AD2-IgG-veltuzumab with a pair of stabilized dimers of CH1-DDD2-Fab-milatuzumab (bispecific antibody) | 5.3 nM | 2 nM | 3 nM | 13.7 nM | 0.3 nM | 55% | 70% | 50% | 90% | > 95% | 5.3 nM | 2 nM | 3 nM | 13.7 nM | 0.3 nM | > 100 nM | 55% | 70% | 80% | 50% | Percent inhibition (%) at 100 nM, MTS assay, Mino [1]: 80%; homotypic adhesion (%), JeKo-1, 2 h, 10 nM [2]: 90%; homotypic adhesion (%), JeKo-1, 24 h, 10 nM [2]: > 95%
74-(20)-(20) bispecific hexavalent antibody (HexAb): CH3-AD2-IgG-milatuzumab with a pair of stabilized dimers of CH1-DDD2-Fab-veltuzumab (bispecific antibody) | 1.2 nM | 0.6 nM | 2 nM | 1.2 nM | 0.3 nM | 65% | 90% | 50% | 90% | > 95% | 1.2 nM | 0.6 nM | 2 nM | 1.2 nM | 0.3 nM | > 100 nM | 65% | 90% | 100% | 50% | homotypic adhesion (%), JeKo-1, 2 h, 10 nM [2]: 90%; homotypic adhesion (%), JeKo-1, 24 h, 10 nM [2]: > 95%
